We go through two molecules from article PMC7261170 (Nucleic Acids Research, 2020).

The assay has as its target T1, CBP-CWC22-S (residues 100-665) (human, UniProt Q9HCG8 100-665).
T1 sequence (looked up): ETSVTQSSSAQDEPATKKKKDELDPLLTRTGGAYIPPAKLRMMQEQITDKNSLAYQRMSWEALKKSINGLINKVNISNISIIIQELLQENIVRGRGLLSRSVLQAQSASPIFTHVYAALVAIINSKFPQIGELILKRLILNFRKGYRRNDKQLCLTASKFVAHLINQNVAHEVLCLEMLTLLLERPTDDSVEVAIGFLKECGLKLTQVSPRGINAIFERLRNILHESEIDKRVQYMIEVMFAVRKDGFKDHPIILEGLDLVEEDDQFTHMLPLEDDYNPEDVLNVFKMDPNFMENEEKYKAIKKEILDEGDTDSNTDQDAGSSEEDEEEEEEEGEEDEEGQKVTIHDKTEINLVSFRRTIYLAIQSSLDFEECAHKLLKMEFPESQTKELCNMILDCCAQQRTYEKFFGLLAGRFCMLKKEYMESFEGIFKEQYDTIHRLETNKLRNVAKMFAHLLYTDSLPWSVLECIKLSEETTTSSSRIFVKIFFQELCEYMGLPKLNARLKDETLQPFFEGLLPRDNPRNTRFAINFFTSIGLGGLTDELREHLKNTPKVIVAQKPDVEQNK
Put plainly: pull-down.

B1: PTS-CWC27 (1-472) (natural protein, human, UniProt Q6UX04 1-472, looked up)
chain: MSNIYIQEPPTNGKVLLKTTAGDIDIELWSKEAPKACRNFIQLCLEAYYDNTIFHRVVPGFIVQGGDPTGTGSGGESIYGAPFKDEFHSRLRFNRRGLVAMANAGSHDNGSQFFFTLGRADELNNKHTIFGKVTGDTVYNMLRLSEVDIDDDERPHNPHKIKSCEVLFNPFDDIIPREIKRLKKEKPEEEVKKLKPKGTKNFSLLSFGEEAEEEEEEVNRVSQSMKGKSKSSHDLLKDDPHLSSVPVVESEKGDAPDLVDDGEDESAEHDEYIDGDEKNLMRERIAKKLKKDTSANVKSAGEGEVEKKSVSRSEELRKEARQLKRELLAAKQKKVENAAKQAEKRSEEEEAPPDGAVAEYRREKQKYEALRKQQSKKGTSREDQTLALLNQFKSKLTQAIAETPENDIPETEVEDDEGWMSHVLQFEDKSRKVKDASMQDSDTFEIYDPRNPVNKRRREESKKLMREKKERR
With B1, the binding result is recorded as “binds”.

B2: CWC27-C (354-472) (domain or fragment, human, UniProt Q6UX04 354-472, looked up)
chain: DGAVAEYRREKQKYEALRKQQSKKGTSREDQTLALLNQFKSKLTQAIAETPENDIPETEVEDDEGWMSHVLQFEDKSRKVKDASMQDSDTFEIYDPRNPVNKRRREESKKLMREKKERR
For the molecule B2, the binding result is recorded as “binds”.
